Experimental findings from patent publication US20180134781A1 (Regeneron, published 2018) are described below.

Assay [1] addresses T1, hLDLR-mFc (negative control protein with the same mFc tag) (human, UniProt P01130 22-788).
T1 construct: also called Irrelevant control; not shown: mFc tag ('the same mFc tag', mouse IgG2a Fc)
Description: BLI (Octet HTX), hLDLR-mFc captured on AMC sensor. As to the method:
(§1) Binding of ANGPTL8 antibodies to human and monkey ANGPTL8 proteins was investigated using Bio-layer Interferometry with an Octet HTX biosensor platform (ForteBio, A Division of Pall Life Sciences). All experiments were performed at 25° C. in 10 mM HEPES pH 7.4, 150 mM NaCl, 0.05% v/v Surfactant Tween-20, and 1 mg/ml BSA with the reaction multiwell plate agitated at 1000 rpm. Approximately 1.6 nm of human ANGPTL8 produced with a C-terminal mouse IgG2a Fc tag (hANGPTL8-mFc; SEQ ID NO: 340) or cynomolgus monkey ANGPTL8 produced with a C-terminal mouse IgG2a Fc tag (MfANGPTL8-mFc; SEQ ID NO: 341) was captured onto anti-mFc (AMC) Octet biosensors by submerging the sensors into wells containing 10 μg/mL of each protein for 4 minutes. Under the same conditions a negative control protein with the same mFc tag (hLDLR-mFc) was also coupled to the AMC sensor. All four sensors, […] and one blank, were then submerged into wells containing 100 nM of different ANGPTL8 monoclonal antibodies or an isotype control for 4 minutes.

The target of assay [2] is T2, monkey ANGPTL8 expressed with C-terminal mouse IgG2a Fc tag (cynomolgus monkey).
T2 construct: also called MfANGPTL8-mFc; mfANGPTL8-mFc
T2 chain: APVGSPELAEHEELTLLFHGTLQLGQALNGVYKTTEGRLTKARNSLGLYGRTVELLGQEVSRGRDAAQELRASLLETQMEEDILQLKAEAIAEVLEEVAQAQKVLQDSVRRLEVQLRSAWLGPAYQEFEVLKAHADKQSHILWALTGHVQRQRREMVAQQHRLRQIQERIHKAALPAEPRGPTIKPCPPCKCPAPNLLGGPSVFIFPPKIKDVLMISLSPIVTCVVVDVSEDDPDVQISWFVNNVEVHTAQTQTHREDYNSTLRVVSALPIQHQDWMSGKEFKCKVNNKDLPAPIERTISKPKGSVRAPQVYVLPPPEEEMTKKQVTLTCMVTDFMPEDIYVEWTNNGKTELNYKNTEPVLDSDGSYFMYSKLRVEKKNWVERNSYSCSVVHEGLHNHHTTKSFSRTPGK
Description: BLI (Octet HTX), MfANGPTL8-mFc captured on AMC sensor. As for the experimental part: as §1
Background: BLI is a label-free optical method that tracks binding on a fibre tip over time.

T1 sequence (P01130 22-788): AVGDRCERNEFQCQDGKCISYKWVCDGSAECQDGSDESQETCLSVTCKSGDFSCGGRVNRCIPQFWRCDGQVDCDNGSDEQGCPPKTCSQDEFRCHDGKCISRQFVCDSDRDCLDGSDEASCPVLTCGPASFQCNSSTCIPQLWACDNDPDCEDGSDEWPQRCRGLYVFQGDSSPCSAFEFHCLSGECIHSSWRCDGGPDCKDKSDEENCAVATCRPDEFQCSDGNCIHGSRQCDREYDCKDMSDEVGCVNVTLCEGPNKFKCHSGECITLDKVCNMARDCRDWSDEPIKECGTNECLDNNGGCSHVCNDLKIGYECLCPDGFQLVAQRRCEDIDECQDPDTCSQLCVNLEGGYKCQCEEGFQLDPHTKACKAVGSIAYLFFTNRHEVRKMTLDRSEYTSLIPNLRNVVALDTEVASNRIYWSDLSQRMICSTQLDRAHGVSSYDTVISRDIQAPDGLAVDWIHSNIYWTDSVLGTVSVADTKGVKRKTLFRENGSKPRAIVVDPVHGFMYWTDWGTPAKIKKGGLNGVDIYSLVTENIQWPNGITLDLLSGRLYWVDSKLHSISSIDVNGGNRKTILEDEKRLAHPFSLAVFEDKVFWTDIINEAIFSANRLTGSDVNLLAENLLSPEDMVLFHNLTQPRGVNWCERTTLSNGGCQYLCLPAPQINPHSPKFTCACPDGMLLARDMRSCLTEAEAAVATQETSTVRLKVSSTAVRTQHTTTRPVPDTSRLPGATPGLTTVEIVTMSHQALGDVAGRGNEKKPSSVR

B1: H4H15361P2 (antibody, human IgG4, V domains shown)
VH: EVQLVESGGGLVQPGRSLRLSCTASGFSFGDNAMGWVRQAPGKGLEWVSFIRRKASGGTTEYAASVKGRFTISRDDSKSIAYLQMNSLKTEDTGVYYCTRGGAVYGYWGQGTLVTVSS
VL: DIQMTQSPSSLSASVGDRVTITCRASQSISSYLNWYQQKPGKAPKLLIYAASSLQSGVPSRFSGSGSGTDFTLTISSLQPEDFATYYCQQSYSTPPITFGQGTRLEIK
notes: human IgG4 Fc (H4H prefix)
For B1, in assay [1], the binding result is “no binding (tested: 0.03 nm at 100 nM mAb)”.

B2: H4H15367P2 (antibody, human IgG4, V domains shown)
VH: QVQLVESGGGVVQPGRSVRLSCGASGFTFKYYGMHWVRQAPGKGLEWVAVIWYDGRNKFYADSVKGRFTISRDNSKNTVNLEMNNLRAEDTAIYYCARDGGTADGDYFDYWGQGTLVTVSS
VL: not shown
notes: human IgG4 Fc (H4H prefix)
On to B2, for which the binding result in assay [1] is given as “no binding (tested: 0.03 nm at 100 nM mAb)”.

B3: H4H15318P (antibody, human IgG4, V domains shown)
VH: QVQLVESGGGVVQPGRSLRLSCTASGFTFGNFGIHWVRQAPGKGLEWVAVISYDGTDKFYADPVKGRFIISRDNSMNILYLQMNSLRAEDTAVYYCAKDGEMELRGYYYYYGMDVWGQGTTVTVSS
VL: DIQMTQSPSSVSASVGDRVTITCRASQGINTWLAWYQQKPGTAPKLLIFAASSLESGVPSRFSGSGFGTDFTLTISSLQSEDLATYFCQQVHSPPYTFGQGTKLEIK
notes: human IgG4 Fc (H4H prefix)
With B3, in assay [1], the binding result was “no binding (tested: 0.03 nm at 100 nM mAb)”.

B4: H4H15323P (antibody, human IgG4, V domains shown)
VH: EVQLVESGGGLVQPGGSLRLSCAASGFTFSSYAMTWVRQAPGKGLEWVSAISGSGGSTYYTDSVKGRFTLSRDNSKNTLYLQMNSLRAEDTAVYYCAKSDYSNTIYWYYGMDVWGQGTTVTVSS
VL: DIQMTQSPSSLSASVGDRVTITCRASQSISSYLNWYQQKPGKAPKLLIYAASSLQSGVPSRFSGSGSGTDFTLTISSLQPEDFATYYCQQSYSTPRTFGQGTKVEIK
notes: human IgG4 Fc (H4H prefix)
Turning to B4, the binding result in assay [1] is “no binding (tested: 0.03 nm at 100 nM mAb)”.

B5: H4H15334P (antibody, human IgG4, V domains shown)
VH: QVQLQESGPGLVKPSQTLSLTCTVSGGSINSGGYYWNWIRQHPGKGLEWIGYIYYSGSTYFNPSLKSRVTISIDTSKNQFSLKLSSVTAADTAVYYCAREGIYAFDYWGQGTLVTVSS
VL: DIQMTQSPSSLSASVGDRVTITCRASQGIRNDLGWYQQKPGKAPKRLIYSASSLQSGVPSRFGGSGSGTEFTLTISSLQPEDFATYYCLQHNSYPWTFGQGTKVEIK
notes: human IgG4 Fc (H4H prefix)
As to B5, the binding result in assay [2] was “no binding (tested: background 0.03 nm at 100 nM mAb)”; in assay [1], “no binding (tested: 0.03 nm at 100 nM mAb)”.

B6: H4H15314P2 (antibody, human IgG4, V domains shown)
VH: QVQLVQSGAEVKKPGASVKVSCKASGYTFTSYDINWVRQATGQGLEWMGWMNPNGDNTGYAQKFQGRVTMTGDTSISTAYMELSSLRSEDTAVYYCAREGIWGFDPWGQGTLVTVSS
VL: DIQMTQSPSSLSASVGDRVTITCRASQDIRNDLGWYQQKPGKAPKRLIYAASSLQSGVPSRFSGSGSGTEFTLTISSLQPEDFATFYCLQHNTFPRTFGQGTKVEIK
notes: human IgG4 Fc (H4H prefix)
Take B6: the binding result in assay [2] is “no binding (tested: background 0.03 nm at 100 nM mAb)”; in assay [1], “no binding (tested: 0.03 nm at 100 nM mAb)”.

B7: H4H15346P (antibody, human IgG4, V domains shown)
VH: EVQLVESGGGLVQPGGSLRLSCAASGFTFSNYAMSWVRQAPGKGLEWVSTISDTGGSTYYADSVKGRFALSRDNSRNTLYLQMNSLRAEDTAVYYCAKEGPPDYWGQGTLVTVSS
VL: EIVLTQSPATLSLSPGERATLSCRTSQSVSIYLAWYQQKPGQAPRLLIYDASKRATGIPARFSGRGSGTDFTLTISSLEPEDFAVYYCQQRSNWPLTFGQGTRLEIK
notes: human IgG4 Fc (H4H prefix)
In the case of B7, the binding result is “no binding (tested: background 0.03 nm at 100 nM mAb)” in assay [2] and “no binding (tested: 0.03 nm at 100 nM mAb)” in assay [1].

B8: H4H15363P2 (antibody, human IgG4, V domains shown)
VH: EVQLVESGGGLVQPGGSLRLSCAASGFTFSNYAMSWVRQVPGKGLEWVSTISGSGGSTYYADSVKGRFTISRDNSKNSLYLQMNSLRAEDTAVYYCAKLVRGVIGWFDPWGQGTLVTVSS
VL: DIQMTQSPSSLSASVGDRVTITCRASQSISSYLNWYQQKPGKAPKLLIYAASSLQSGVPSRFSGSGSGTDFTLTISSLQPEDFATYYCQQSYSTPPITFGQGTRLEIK
notes: human IgG4 Fc (H4H prefix)
Take B8: the binding result in assay [1] is “no binding (tested: 0.03 nm at 100 nM mAb)”.

B9: H4H15350P2 (antibody, human IgG4, V domains shown)
VH: EVQLVESGGGLVQPGGSLRLSCAASGFTFSSFRMTWVRQAPGKGLEWVANIKQDGSEKYYVDSVKGRFTISRDNAKNSLYLQMNSLRAEDTAVYYCARGGGIAAYWGQGTLVTVSS
VL: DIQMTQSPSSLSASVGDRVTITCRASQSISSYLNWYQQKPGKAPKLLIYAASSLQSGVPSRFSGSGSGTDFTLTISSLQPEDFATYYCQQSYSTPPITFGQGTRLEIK
notes: human IgG4 Fc (H4H prefix)
On to B9, for which the binding result in assay [1] is on record as “no binding (tested: 0.03 nm at 100 nM mAb)”.

B10: H4H15355P2 (antibody, human IgG4, V domains shown)
VH: QVQLVESGGGVVQPGRSLRLSCAASGFTFTNYAMHWVRQAPGKGLEWVAVISYDGSHTYFADSVKGRFTMSRDNSKNTISLQMNSLRPEDTAVYFCAGGGATTWFYFYGLDVWGQGTTVTVSS
VL: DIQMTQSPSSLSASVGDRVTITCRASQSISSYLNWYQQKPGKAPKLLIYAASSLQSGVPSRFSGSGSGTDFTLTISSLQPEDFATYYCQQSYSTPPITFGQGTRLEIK
notes: human IgG4 Fc (H4H prefix)
As to B10, the binding result in assay [1] is “no binding (tested: 0.03 nm at 100 nM mAb)”.

B11: H4H15330P (antibody, human IgG4, V domains shown)
VH: QVQLVESGGGLVKPGGSLRLSCAASGFTFSDYYMSWIRQAPGKGLEWISHISGSGRTTHYADSMKGRFTISRDNAKNSLYLQMNSLRAEDTAVYYCVREGGFNWNYEGTFDIWGQGTMVTVSS
VL: DIVMTQTPLSSPVTLGQPASISCRSSQSLLHSDQNTYLSWLHQRPGQPPRLLIYKISNRFSGVPDRFSGSGAGTDFTLKISRVEAEDVGIYYCMQGTQFPLTFGGGTKVEIK
notes: human IgG4 Fc (H4H prefix)
For B11, in assay [1], the binding result was “no binding (tested: 0.03 nm at 100 nM mAb)”.

B12: H4H15335P (antibody, human IgG4, V domains shown)
VH: QVQLVESGGGVVQPGRSLRLSCAASGFTFNNYGIHWVRQAPGKGLEWVAVISYDESNKYYADSVKGRFTISRDNSKNTLYLQMNSLRAEDTAVYYCAKDIRIAARRHYYYYGMDVWGQGTTVTVSS
VL: DIQMTQSPSSVSASVGDRVTITCRASQGISRWLAWYQQKPGKAPKLLIYAASSLESGVPARFSGSGSGTDFTLTISSLQPEDFATYYCQQANSFPITFGPGTKVDIK
notes: human IgG4 Fc (H4H prefix)
As for B12, the binding result in assay [1] was “no binding (tested: 0.03 nm at 100 nM mAb)”.

B13: H4H15321P (antibody, human IgG4, V domains shown)
VH: EVQLVESGGGLVQPGGSLRLSCAASGFTFSSYAMSWVRQAPGKGLEWVSAITGSGGRTYYADSVKGRFTISRDNAKNTLYLQMNSLRAEDTAVYYCAKNFPFDYWGQGTLVTVSS
VL: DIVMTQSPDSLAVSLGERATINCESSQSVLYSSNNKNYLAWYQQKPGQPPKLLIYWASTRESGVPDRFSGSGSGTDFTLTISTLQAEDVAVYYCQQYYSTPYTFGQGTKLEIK
notes: human IgG4 Fc (H4H prefix)
With B13, the binding result in assay [1] is recorded as “no binding (tested: 0.03 nm at 100 nM mAb)”.

B14: H4H15345P (antibody, human IgG4, V domains shown)
VH: EVQLVESGGGLVQPGGSLRLSCAASGFTFSTYAMSWVRQAPGKGLEWVSVISGSFISTYYADSVKGRFTISRDNSKNTLYLQMTSLRAEDTAVYYCAKNSPFDYWGQGTLVTVSS
VL: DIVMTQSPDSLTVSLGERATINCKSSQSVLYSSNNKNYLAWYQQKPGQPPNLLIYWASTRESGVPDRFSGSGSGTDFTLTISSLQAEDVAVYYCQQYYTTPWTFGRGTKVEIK
notes: human IgG4 Fc (H4H prefix)
Turning to B14, in assay [1], the binding result is given as “no binding (tested: 0.03 nm at 100 nM mAb)”.

B15: H4H15362P2 (antibody, human IgG4, V domains shown)
VH: QVQLVESGGGVVQPGRSLRLSCAASGFTFSSYGMHWVRQAPGKGLEWVAVIWYDGSNKYYADSVKGRFTISRDNSKNTLYLQMNSLRAEDTAVYYCARDWVRFLEWFPHFDYWGQGTLVTVSS
VL: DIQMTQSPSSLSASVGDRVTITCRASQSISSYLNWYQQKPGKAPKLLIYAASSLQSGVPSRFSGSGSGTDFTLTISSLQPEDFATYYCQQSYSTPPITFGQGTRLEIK
notes: human IgG4 Fc (H4H prefix)
For the molecule B15, in assay [1], the binding result was “no binding (tested: 0.03 nm at 100 nM mAb)”.

B16: H4H15357P2 (antibody, human IgG4, V domains shown)
VH: EVQLVESGGGLVKPGGSLRLSCTASGFTFGNAWMSWVRQAPGKGLEWVGLIKGKTDGGTTNYAAPVKGRFTISRDDSKNTLYLHLNSLRTEDTALYYCTTDQVELRQYYYYGLDVWGQGTTVTVSS
VL: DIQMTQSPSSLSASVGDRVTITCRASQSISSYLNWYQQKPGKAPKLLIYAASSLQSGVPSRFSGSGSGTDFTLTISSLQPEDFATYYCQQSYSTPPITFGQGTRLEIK
notes: human IgG4 Fc (H4H prefix)
For B16, in assay [1], the binding result was “no binding (tested: 0.03 nm at 100 nM mAb)”.

B17: H4H15369P2 (antibody, human IgG4, V domains shown)
VH: EVQLVESGGGLVQPGGSLRLSCVGTGFTFSNYAMSWVRQAPGKGLEWVSGISGRSSGTFYADSVKGRFTISRDNSQNTLYLQMNSLGAEDTAVYYCAKVSRYNWDYVPFDFWGQGTLVTVSS
VL: not shown
notes: human IgG4 Fc (H4H prefix)
For the molecule B17, in assay [1], the binding result was “no binding (tested: 0.03 nm at 100 nM mAb)”.

B18: H4H15347P (antibody, human IgG4, V domains shown)
VH: EVQLVESGGGLVQPGGSLRLSCAASGFTFRNYAMNWARQAPGKGLEWVSGITGSGGATYYADSVKGRFTISRENSKNTLFLQMDTLRAEDTAVYYCAKDRRYFPTSGGPQWGQGTLVTVSS
VL: DIVMTQSPLSLPVTPGEPASISCRSSRSLLHSSGYNYLDWYLQKPGQSPQLLLYLGSNRASGVPDRFSGSGSGTYFTLKISRVDAEDVGVYYCMQALQTPWTFGQGTKVEIK
notes: human IgG4 Fc (H4H prefix)
Consider B18, for which the binding result in assay [1] is reported as “no binding (tested: 0.03 nm at 100 nM mAb)”.

B19: H4H15354P2 (antibody, human IgG4, V domains shown)
VH: QVQLVESGGGVVQPGRSLRLSCTASGFTFNNYGIHWVRQAPGKGLEWVAVISYDGSNKFYAESVRGRFTISRDNSRNTLFLQMISLRGEDSAVYYCAKDRPYYDILTAHYPSDYYFYAMDVWGHGTTVTVSS
VL: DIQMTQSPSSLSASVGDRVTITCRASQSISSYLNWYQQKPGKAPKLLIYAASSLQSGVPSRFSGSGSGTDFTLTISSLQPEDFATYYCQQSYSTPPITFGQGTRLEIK
notes: human IgG4 Fc (H4H prefix)
On to B19, for which the binding result in assay [2] is “no binding (tested: background 0.03 nm at 100 nM mAb)”; in assay [1] it was “no binding (tested: 0.03 nm at 100 nM mAb)”.
